Data: patent publication US20020164304A1 (TRANSGENE, published 2002)

Target: T1, human α1-antitrypsin (human, UniProt P01009 25-418)
T1 construct: Secreted recombinant human α1AT found in culture supernatant; also called α1AT; human α1AT
Test: supernatant incubated with active NE (3, 30, 300 nM; 30 min, 23°), then immunoprecipitation, SDS-PAGE and autoradiography
Procedure: (B) At various times after infection, the lungs were minced, incubated for 1 hour in methionine-free LHC-8 medium (37°), and then incubated for 24 hours in medium with (³⁵S)-methionine (1 ml medium/150 mg tissue; 500 μCi/ml). The supernatant was then evaluated by immunoprecipitation with a rabbit antibody to human α1AT (Boehringer Mannheim), SDS-polyacrylamide gels, and autoradiography as in FIG. 2E. Trichloroacetic acid-precipitable radioactivity was evaluated by immunoprecipitation (for lanes 10-15, 2×10⁶ cpm; for lanes 16-18, 1×10⁶ cpm). Autoradiogram exposures for lanes 10 to 15 were identical; lanes 16-18 were evaluated at a different time, and the exposures adjusted such that the intensity of the α1AT band without NE was similar to lane 13. The ability of the synthesized human α1AT to inhibit its natural substrate, NE, was evaluated by incubating the supernatant with various dilutions of active NE (30 min, 23°) before immmunoprecipitation.
The de novo expression of the human α1AT protein lasted at least 1 week (lane 15) and the secreted human α1AT was functional, as shown by its ability to form a complex with its natural target, human neutrophil elastase (NE) (lanes 16-18).

T1 sequence (P01009 25-418 limits assumed): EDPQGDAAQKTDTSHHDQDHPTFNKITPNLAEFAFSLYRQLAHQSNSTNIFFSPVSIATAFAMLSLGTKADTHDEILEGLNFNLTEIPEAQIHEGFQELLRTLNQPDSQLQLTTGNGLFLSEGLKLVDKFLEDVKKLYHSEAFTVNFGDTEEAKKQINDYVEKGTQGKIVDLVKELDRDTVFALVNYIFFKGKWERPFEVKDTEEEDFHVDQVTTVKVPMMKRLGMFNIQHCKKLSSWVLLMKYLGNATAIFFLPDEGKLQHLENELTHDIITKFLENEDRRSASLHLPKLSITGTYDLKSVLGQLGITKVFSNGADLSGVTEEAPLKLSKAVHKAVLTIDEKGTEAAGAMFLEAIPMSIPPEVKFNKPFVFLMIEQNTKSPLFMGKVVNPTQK

B1: human neutrophil elastase (enzyme, UniProt P08246 30-247, looked up)
chain: IVGGRRARPHAWPFMVSLQLRGGHFCGATLIAPNFVMSAAHCVANVNVRAVRVVLGAHNLSRREPTRQVFAVQRIFENGYDPVNLLNDIVILQLNGSATINANVQVAQLPAQGRRLGNGVQCLAMGWGLLGRNRGIASVLQELNVTVVTSLCRRSNVCTLVRGRQAGVCFGDSGSPLVCNGLIHGIASFVRGGCASGLYPDAFAPVAQFVNWIDSIIQ
notes: Described as active NE
Q: Does B1 bind?
A: Result: binds
